# Measurements taken from patent US20210087238A1, “CELL PENETRATING PEPTIDES AND RELATED COMPOSITIONS AND METHODS” (Phylogica Limited, priority 2017, published 2021).
# “Also recorded” adds a separate entry of the source.
# B1: Omomyc: Myc dominant negative peptide (protein)
# chain: GPGGSGTGATSDTEENVKRRTHNVLERQRRNELKRSFFALRDQIPELENNEKAPKVVILKKATAYILSVQAETQKLISEIDLLRKQNEQLKHKLEQLRNSCA
# modifications: Amino acid sequence of Omomyc
# notes: Myc dominant negative peptide
# What was measured:
# AMO-1 (plasmacytoma) = test: Omomyc cell viability assay, ATP activity; assay type: cell-based; settings: AMO-1 cells only
# Description: (§1) Treatment of (A) AMO-1 (plasmacytoma), (B) HL-60 (promyelocytic leukemia), and (C) T47D (breast cancer) cell lines with FPP-1.1_Omomyc protein. After 48 h incubation, cell viability was assessed by measuring ATP activity. […] Results are representative of two independent experiments. Error bars represent standard deviation from the mean of duplicate samples.
# (§2) All assays followed manufacturer's instructions.
# [1] = system: AMO-1, HL-60, and T47D cell lines; test: Omomyc cell viability assay, statements made for all three cell lines together; assay type: cell-based; settings: 48 h; ATP activity; AMO-1, HL-60, T47D
# Description: as §1
# Treatment of AMO-1 (plasmacytoma), HL-60 (promyelocytic leukemia), and T47D (breast cancer) cell lines with FPP1.1_Omomyc or small molecule inhibitors. After a 48 h incubation, the cell viability was assessed by measuring ATP activity. […] Results are from one independent experiment. Error bars represent standard deviation from the mean of duplicate samples.
# as §2
molecule,measurement,setting,value
B1,doses at which a slight reduction in cell viability was seen,AMO-1 (plasmacytoma),above 10 μM
same,effect on cell viability,[1],no effect on cell viability; also recorded: poor potency; also recorded: minor effect on cell viability only at the highest concentrations
